The labels stand for the following.
T1: HA-tagged dopamine D2 receptor, P14416
T1 chain: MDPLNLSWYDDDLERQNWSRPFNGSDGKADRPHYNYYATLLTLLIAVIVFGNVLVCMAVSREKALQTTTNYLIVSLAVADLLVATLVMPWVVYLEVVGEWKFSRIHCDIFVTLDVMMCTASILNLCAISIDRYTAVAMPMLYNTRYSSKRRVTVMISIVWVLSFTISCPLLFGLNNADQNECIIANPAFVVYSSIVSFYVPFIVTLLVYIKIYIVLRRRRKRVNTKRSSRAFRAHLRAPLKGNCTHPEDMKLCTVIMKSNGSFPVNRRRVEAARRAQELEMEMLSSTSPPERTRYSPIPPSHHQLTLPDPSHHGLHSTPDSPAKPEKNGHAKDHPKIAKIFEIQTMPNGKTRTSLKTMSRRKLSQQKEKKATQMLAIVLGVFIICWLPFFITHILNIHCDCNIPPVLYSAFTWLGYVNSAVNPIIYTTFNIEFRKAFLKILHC

T2: dopamine D1 receptor, C-terminally tagged with Renilla luciferase variant 8, P21728
T2 chain: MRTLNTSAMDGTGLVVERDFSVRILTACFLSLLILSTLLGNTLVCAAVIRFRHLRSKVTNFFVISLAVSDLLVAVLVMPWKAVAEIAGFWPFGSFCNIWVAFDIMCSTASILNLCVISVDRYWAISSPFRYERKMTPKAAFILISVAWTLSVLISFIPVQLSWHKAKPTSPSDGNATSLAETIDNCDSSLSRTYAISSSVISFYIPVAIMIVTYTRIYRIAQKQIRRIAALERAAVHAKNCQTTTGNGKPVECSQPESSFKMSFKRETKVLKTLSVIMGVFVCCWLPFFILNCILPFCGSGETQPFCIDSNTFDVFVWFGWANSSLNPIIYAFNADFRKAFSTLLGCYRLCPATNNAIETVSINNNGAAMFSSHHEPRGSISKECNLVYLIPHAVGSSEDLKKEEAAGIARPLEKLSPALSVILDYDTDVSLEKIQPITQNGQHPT

T3: M2 muscarinic acetylcholine receptor, C-terminally tagged with Renilla luciferase variant 8, P08172
T3 chain: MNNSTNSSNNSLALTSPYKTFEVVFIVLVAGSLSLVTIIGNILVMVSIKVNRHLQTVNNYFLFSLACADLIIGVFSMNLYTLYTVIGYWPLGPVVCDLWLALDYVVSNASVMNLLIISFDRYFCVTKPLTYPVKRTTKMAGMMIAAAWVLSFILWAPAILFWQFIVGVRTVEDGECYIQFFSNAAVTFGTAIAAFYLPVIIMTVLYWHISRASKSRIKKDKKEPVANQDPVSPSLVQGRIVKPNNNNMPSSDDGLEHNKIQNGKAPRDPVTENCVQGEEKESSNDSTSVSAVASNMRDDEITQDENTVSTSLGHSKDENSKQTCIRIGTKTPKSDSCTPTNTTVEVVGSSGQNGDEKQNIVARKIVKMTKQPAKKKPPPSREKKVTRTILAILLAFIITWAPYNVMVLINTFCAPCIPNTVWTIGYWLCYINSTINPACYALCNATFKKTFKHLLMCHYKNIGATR

T4: dopamine D2 receptor (long isoform), C-terminally tagged with Renilla luciferase variant 8, P14416
T4 chain: T1 chain

B1: Venus-tagged arrestin-3 A87V base mutant, P32120 G65del (protein)
chain: MGEKPGTRVFKKSSPNCKLTVYLGKRDFVDHLDKVDPVDGVVLVDPDYLKDRKVFVTLTCAFRYREDLDVLGLSFRKDLFIANYQVFPPTPNPPRPPTRLQERLLRKLGQHAHPFFFTIPQNLPCSVTLQPGPEDTGKACGVDFEIRAFCAKSLEEKSHKRNSVRLVIRKVQFAPEKPGPQPSAETTRHFLMSDRSLHLEASLDKELYYHGEPLNVNVHVTNNSTKTVKKIKVSVRQYADICLFSTAQYKCPVAQVEQDDQVSPSSTFCKVYTITPLLSNNREKRGLALDGKLKHEDTNLASSTIVKEGANKEVLGILVSYRVKVKLVVSRGGDVSVELPFVLMHPKPHDHIALPRPQSAA
B2: Venus-tagged arrestin-3 A87V base mutant, P32120 K313A (protein)
chain: MGEKPGTRVFKKSSPNCKLTVYLGKRDFVDHLDKVDPVDGVVLVDPDYLKDRKVFVTLTCAFRYGREDLDVLGLSFRKDLFIANYQVFPPTPNPPRPPTRLQERLLRKLGQHAHPFFFTIPQNLPCSVTLQPGPEDTGKACGVDFEIRAFCAKSLEEKSHKRNSVRLVIRKVQFAPEKPGPQPSAETTRHFLMSDRSLHLEASLDKELYYHGEPLNVNVHVTNNSTKTVKKIKVSVRQYADICLFSTAQYKCPVAQVEQDDQVSPSSTFCKVYTITPLLSNNREKRGLALDGKLKHEDTNLASSTIVKEGANAEVLGILVSYRVKVKLVVSRGGDVSVELPFVLMHPKPHDHIALPRPQSAA
B3: Venus-tagged arrestin-3 A87V base mutant, P32120 G65P (protein)
chain: B2 chain with G65P, A313K
B4: Venus-tagged arrestin-3 A87V base mutant, P32120 F245A (protein)
chain: B2 chain with F245A, A313K
B5: Venus-tagged arrestin-3 A87V base mutant, P32120 E157A (protein)
chain: B2 chain with E157A, A313K

Positions count from the first letter of the chain named. Names and notes keep the numbering of the source.

The first assay deals with T1, HA-tagged dopamine D2 receptor, P14416. Briefly: co-immunoprecipitation (quantified immunoblot). Particulars: chain shown with the change; HEK293 arrestin 2/3 KO cells; 10 μM quinpirole; non-specific binding (no HA-D2R) subtracted; parent: est. 8.4; read off a plot. (A western blot detects proteins with antibodies after separation by electrophoresis.)
Turning to B1, the response worked out at 2.7.

Another assay has as its target dopamine D2 receptor (long isoform), C-terminally tagged with Renilla luciferase variant 8 (human) (UniProt P14416). Briefly: FRET or BRET; in-cell BRET in HEK293 arrestin-2/3 KO cells co-transfected with Venus-arrestin-3 (acceptor) and receptor-RLuc8 (donor); 10 uM agonist (carbachol for M2R, isoproterenol for β2AR, dopamine for D1R, quinpirole for D2R), 5 uM coelenterazine h; net BRET (with minus without agonist), average at 10 and 15 min and time course.
Conditions: not given
Turning to “Venus-tagged arrestin-3 ΔG65 (on the A87V background) (from UniProt P32120 1-362) (natural protein)”, the reduction of binding (net BRET) against A87V was found to be 80%.

For another assay, the target named is T2, dopamine D1 receptor, C-terminally …. Briefly: BRET. Particulars: chain shown with the change; HEK293 arrestin 2/3 KO cells; agonist-induced minus basal BRET; average at 10 and 15 min; parent: est. 0.032; read off a plot.
For B2, the response turned out to be 0.033.

For the molecule B3, the response was found to be 0.033.

In the case of B4, the response was 0.042.

As to B5, the response was found to be 0.042.

Take B1: the response was 0.019.

Another assay deals with T3, M2 muscarinic acetylcholine receptor, …. Briefly: BRET. Particulars: chain shown with the change; HEK293 arrestin 2/3 KO cells; agonist-induced minus basal BRET; average at 10 and 15 min; parent: est. 0.029; read off a plot. (In general: Bioluminescence resonance energy transfer reports proximity on the nanometre scale.)
Take B2: the response is 0.032.

As for B3, the response was 0.023.

As for B4, the response turned out to be 0.031.

Consider B5, for which the response was 0.026.

As to B1, the response was 0.019.

The next assay addresses T4, dopamine D2 receptor (long isoform), …. Briefly: BRET. Particulars: chain shown with the change; HEK293 arrestin 2/3 KO cells; agonist-induced minus basal BRET; average at 10 and 15 min; parent: est. 0.023; read off a plot.
As for B2, the response is 0.025.

As to B3, the response is 0.019.

As to B4, the response amounted to 0.027.

In the case of B5, the response amounted to 0.023.
